Data set [1] deals with T1, UmuDAb (Acinetobacter baumannii ATCC 17978 JH, UniProt A0A0D5YJU0 1-203).
T1 sequence: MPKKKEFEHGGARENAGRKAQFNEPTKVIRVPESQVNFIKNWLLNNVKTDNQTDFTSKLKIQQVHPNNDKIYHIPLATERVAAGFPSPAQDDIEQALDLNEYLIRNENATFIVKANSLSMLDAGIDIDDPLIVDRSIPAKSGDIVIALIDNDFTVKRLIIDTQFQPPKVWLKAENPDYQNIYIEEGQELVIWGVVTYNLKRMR
In words: competition; 100x competitor; […] (10x = 100 mM Tris, 500 mM KCl, 10 mM DTT, […]. The note with it: protein: recombinant; chain copies: 2; blunt.

The next data set deals with UmuDAb N100D (Acinetobacter baumannii ATCC 17978 JH, UniProt A0A0D5YJU0 1-203, N100D). In words: EMSA; Bmax < 0.90; […] (10x = 100 mM Tris, 500 mM KCl, 10 mM DTT, […]. The note with it: protein: recombinant; chain copies: 2; label: 5' IRDye700 on both strands; blunt. (Mobility shift assays separate free from complexed probe on a gel.)
Another data set addresses UmuDAb G124D (Acinetobacter baumannii ATCC 17978 JH, UniProt A0A0D5YJU0 1-203, G124D). The description is as above. The note with it: protein: recombinant; chain copies: 2; label: 5' IRDye700 on both strands; blunt.
For the next data set, the target named is UmuDAb HTH1 (Acinetobacter baumannii ATCC 17978 JH, UniProt A0A0D5YJU0 1-203, E24K). In words: EMSA; Hill 6.1; 94% bound; […] (10x = 100 mM Tris, 500 mM KCl, 10 mM DTT, […]. Particulars: protein: recombinant; chain copies: 2; label: 5' IRDye700 on both strands; blunt.
A further data set concerns the target UmuDAb HTH2 (Acinetobacter baumannii ATCC 17978 JH, UniProt A0A0D5YJU0 1-203, K40P;N41P). Nature of the data set: EMSA; Hill 10.8; 78% bound; […] (10x = 100 mM Tris, 500 mM KCl, 10 mM DTT, […]. The note with it: protein: recombinant; chain copies: 2; label: 5' IRDye700 on both strands; blunt.
Another data set addresses UmuDAb R201X (Acinetobacter baumannii ATCC 17978 JH, UniProt A0A0D5YJU0 1-200). Nature of the data set: EMSA; 60-70% bound above 1 uM; […] (10x = 100 mM Tris, 500 mM KCl, 10 mM DTT, […]. Particulars: protein: recombinant; chain copies: 2; label: 5' IRDye700 on both strands; blunt.
The next data set addresses UmuDAb A83Y (Acinetobacter baumannii ATCC 17978 JH, UniProt A0A0D5YJU0 1-203, A83Y). In words: EMSA; Hill 4.65; legend gives 69 nM; […] (10x = 100 mM Tris, 500 mM KCl, 10 mM DTT, […]. Particulars: protein: recombinant; chain copies: 2; label: 5' IRDye700 on both strands; blunt.
Another data set deals with UmuDAb W192X (Acinetobacter baumannii ATCC 17978 JH, UniProt A0A0D5YJU0 1-191). Nature of the data set: EMSA; Hill 6.1; 60-70% bound above 1 uM; […] (10x = 100 mM Tris, 500 mM KCl, 10 mM DTT, […]. Particulars: protein: recombinant; chain copies: 2; label: 5' IRDye700 on both strands; blunt.
The target in data set [2] is T1, UmuDAb. Nature of the data set: EMSA; Hill 4.9; EMSA: LI-COR Odyssey binding buffer (10x = 100 mM Tris, 500 mM KCl, 10 mM DTT, pH 7.5), 25 mM DTT, 1 ug/uL poly(dI-dC), 200 fmol probe per 20 uL, 20 min at room temperature; 5% TBE gel run at 4 C. The note with it: protein: recombinant; chain copies: 2; label: 5' IRDye700 on both strands; blunt.
The target in data set [3] is T1, UmuDAb. In words: competition; 100x competitor; not different from WT; […] (10x = 100 mM Tris, 500 mM KCl, 10 mM DTT, […]. Particulars: protein: recombinant; chain copies: 2; blunt.
For data set [4], the target named is T1, UmuDAb. In words: EMSA; no higher MW second band; […] (10x = 100 mM Tris, 500 mM KCl, 10 mM DTT, […]. The note with it: protein: recombinant; chain copies: 2; blunt.
In data set [5] the target is T1, UmuDAb. Nature of the data set: competition; 100x competitor; also fails vs L2-labeled probe (Fig S3); […] (10x = 100 mM Tris, 500 mM KCl, 10 mM DTT, […]. Particulars: protein: recombinant, chain copies: 2, blunt.

B1: LR3 (dsDNA)
DNA 1: TCGTCAACCCAGAAATGTAACTTTTCTGGGTTACATT
DNA 2: AATGTAACCCAGAAAAGTTACATTTCTGGGTTGACGA
B1: in the data set with UmuDAb [1], the binding result is recorded as “no binding”.

B2: WT 37 bp UmuDAb operator probe (dsDNA)
DNA 1: TCGTCAACTTGAAAATGTAACTTTTTCAAGTTACATT
DNA 2: AATGTAACTTGAAAAAGTTACATTTTCAAGTTGACGA
For B2, the Kd (commonly the concentration at which binding is half-saturated) worked out at 306 nM with UmuDAb N100D; 390 nM with UmuDAb G124D; 99 nM with UmuDAb HTH1; 114 nM with UmuDAb HTH2; 353 nM in the data set with UmuDAb R201X; 70 nM with UmuDAb A83Y. For the same molecule, the dissociation constant Kd with UmuDAb W192X worked out at 540 nM; with UmuDAb [2], 38.9 nM.

B3: R1 (dsDNA)
DNA 1: TCGTCAACTCAAAAATGTAACTTTTTCAAGTTACATT
DNA 2: AATGTAACTTGAAAAAGTTACATTTTTGAGTTGACGA
As for B3, the binding result with UmuDAb [3] was “binds”.

B4: C3 (dsDNA)
DNA 1: TCGTCAACTTGAAAATTCAGATTTTTCAAGTTACATT
DNA 2: AATGTAACTTGAAAAATCTGAATTTTCAAGTTGACGA
For the molecule B4, the binding result with UmuDAb [1] was “no binding”.

B5: L1 (dsDNA)
DNA 1: TCGTCAACTTGAAAATGTAACTTTTTTGAGTTACATT
DNA 2: AATGTAACTCAAAAAAGTTACATTTTCAAGTTGACGA
Regarding B5, the binding result with UmuDAb [3] was “binds”.

B6: R2 (dsDNA)
DNA 1: TCGTCAACTTGAAAATGTAACTTTTCTGGGTTACATT
DNA 2: AATGTAACCCAGAAAAGTTACATTTTCAAGTTGACGA
In the case of B6, in the data set with UmuDAb [3], the binding result was “binds”.

B7: L2 labeled probe (dsDNA)
DNA 1: TCGTCAACCCAGAAATGTAACTTTTTCAAGTTACATT
DNA 2: AATGTAACTTGAAAAAGTTACATTTCTGGGTTGACGA
For the molecule B7, the binding signal with UmuDAb [4] is ~0.75 Kd ratio to WT probe.

B8: L2C31-2 (dsDNA)
DNA 1: TCGTCAACCCAGAAATTCAACTTTTTCAAGTTACATT
DNA 2: AATGTAACTTGAAAAAGTTGAATTTCTGGGTTGACGA
For the molecule B8, in the data set with UmuDAb [5], the binding result is listed as “no binding”.

B9: L2C34-5 (dsDNA)
DNA 1: TCGTCAACCCAGAAATGTAGATTTTTCAAGTTACATT
DNA 2: AATGTAACTTGAAAAAATTACATTTCTGGGTTGACGA
As to B9, the binding result with UmuDAb [5] (2 mismatches in core as printed) is on record as “no binding”.

For the origin of these results see PMC11332147, “Repression of Acinetobacter baumannii DNA damage response requires DdrR-assisted binding of UmuDAb dimers to atypical SOS box”.
